In patent US20200297760A1 (JUNO THERAPEUTICS, published 2020):

Tests used:
[1] = target: T1, HLA-A*03:01 (human); experiment: REVEAL MHC-peptide binding assay, recombinant HLA
T1 construct: recombinant MHC class I molecule incubated with the synthetic peptide (REVEAL, ProImmune)
Procedure: (§1) Specifically, assessment was of a series of overlapping 9-mer peptides derived from the sequence […] (set forth in SEQ ID NO: 7), which contains a portion of the CD28 transmembrane domain and 4-1BB costimulatory domain spanning the junction between the domains (bond joining the two amino acids noted in underline). In addition, a series of overlapping 9-mer peptides of each of a number of different variants of this portion also were assessed, each variant containing a mutation or mutations in this region as described in Example 2.
(§2) The various 9-mer overlapping peptides were synthesized and their purity tested by MALDI-TOF Mass Spectrometry.

[2] = target: HLA-A*11:01 (recombinant MHC class I molecule) (human); experiment: REVEAL MHC-peptide binding assay, recombinant HLA-A*11:01
Procedure: as §1, §2

[3] = target: HLA-B*08:01 (recombinant MHC class I molecule) (human); experiment: REVEAL MHC-peptide binding assay, recombinant HLA-B*08:01
Procedure: as §1, §2

Binder | In Vitro Score [1] | In Vitro Score [2] | In Vitro Score [3]
FWVKRGLKK (synthetic 9-mer variant; the entry already carries the change) | 2.7 % of positive control peptide | – | –
FWVKRGNKK (synthetic 9-mer variant; the entry already carries the change) | 3.6 % of positive control peptide | – | –
FWVKRGRKK [Synthetic peptide FWVKRGRKK] | – | 6.5 score, % of positive control peptide | 0 score, % of positive control peptide
FWVKRGAKK [Synthetic peptide FWVKRGAKK] | – | 13.2 score, % of positive control peptide | 0.3 score, % of positive control peptide
FWVKRGLKK [Synthetic peptide FWVKRGLKK] | – | 25.3 score, % of positive control peptide | 6.3 score, % of positive control peptide
FWVKRGSKK [Synthetic peptide FWVKRGSKK] | – | 5.6 score, % of positive control peptide | 0.1 score, % of positive control peptide
FWVKRGHKK [Synthetic peptide FWVKRGHKK] | – | 27.6 score, % of positive control peptide | 0.4 score, % of positive control peptide
FWVHRGRKK [Synthetic peptide FWVHRGRKK] | – | 5.6 score, % of positive control peptide | 0 score, % of positive control peptide
FWVKRGNKK [Synthetic peptide FWVKRGNKK] | – | 7.3 score, % of positive control peptide | 0.1 score, % of positive control peptide
FWVLRGRKK [Synthetic peptide FWVLRGRKK] | – | 5 score, % of positive control peptide | 0 score, % of positive control peptide
FWVARGRKK [Synthetic peptide FWVARGRKK] | – | – | 0 score, % of positive control peptide
WVQRGSKKL [Synthetic peptide WVQRGSKKL] | – | 5.9 score, % of positive control peptide | –
FIIFWVKRG [Synthetic peptide FIIFWVKRG] | – | 0.4 score, % of positive control peptide | 0.1 score, % of positive control peptide
FIIFWVQRG [Synthetic peptide FIIFWVQRG] | – | 1.5 score, % of positive control peptide | 0.6 score, % of positive control peptide
FIIFWVLRG [Synthetic peptide FIIFWVLRG] | – | 2.4 score, % of positive control peptide | 0.2 score, % of positive control peptide
FIIFWVSRG [Synthetic peptide FIIFWVSRG] | – | 5.1 score, % of positive control peptide | 0.4 score, % of positive control peptide
IFWVKRGRK [Synthetic peptide IFWVKRGRK] | – | 29.3 score, % of positive control peptide | 0.4 score, % of positive control peptide
IFWVQRGSK [Synthetic peptide IFWVQRGSK] | – | 103 score, % of positive control peptide | 0 score, % of positive control peptide
IFWVLRGRK [Synthetic peptide IFWVLRGRK] | – | 29.3 score, % of positive control peptide | 0 score, % of positive control peptide
AFIIFWVKR [Synthetic peptide AFIIFWVKR] | – | 25.9 score, % of positive control peptide | 1.9 score, % of positive control peptide
AFIIFWVQR [Synthetic peptide AFIIFWVQR] | – | 15 score, % of positive control peptide | 0 score, % of positive control peptide
AFIIFWVLR [Synthetic peptide AFIIFWVLR] | – | 17.2 score, % of positive control peptide | 0.2 score, % of positive control peptide
